Source: the FLAb antibody collection (doi:10.1101/2023.12.08.570889)
Changes are numbered by the printed parent chain.

B1: unnamed (protein)
chain 1: QMQLVESGGGVVQPGRSLRLSCAASGFTFRTYGMHWVRQAPGKGLEWVAVIWYDGSNKHYADSVKGRFTITRDNSKNTLNLQMNSLRAEDTAVYYCARAPRYDDLYEAFDVWGQGTMVTVSS
chain 2: SYVLTQPPSVSVAPGQTARITCGGNNLGSKSVHWYQQKPGQAPVLVVYDDSDRPSWIPERFSGSNSGNTATLTISRGEAGDEADYYCQVWDSSSDHVVFGGGTKLTVL
B2: unnamed (protein)
chain 1: B1 chain 1 with A99S, L105Y, Y106L
chain 2: B1 chain 2
B3: unnamed (protein)
chain 1: B1 chain 1 with D104E, L105A
chain 2: B1 chain 2
B4: unnamed (protein)
chain 1: B1 chain 1 with L105T
chain 2: B1 chain 2
B5: unnamed (protein)
chain 1: B1 chain 1 with A99S, D103Y, L105Y, Y106W
chain 2: B1 chain 2
B6: unnamed (protein)
chain 1: B1 chain 1 with D104Y, L105Y, Y106V
chain 2: B1 chain 2
B7: unnamed (protein)
chain 1: B1 chain 1 with D104W, L105E
chain 2: B1 chain 2
B8: unnamed (protein)
chain 1: B1 chain 1 with A99S, D104E, L105Y
chain 2: B1 chain 2
B9: unnamed (protein)
chain 1: B1 chain 1 with L105R
chain 2: B1 chain 2
B10: unnamed (protein)
chain 1: B1 chain 1 with A99S, D104W, L105Y, Y106L
chain 2: B1 chain 2

target: TSLP, Q969D9; experiment: Kd (SPR)

Binder | Kd
B1 | 122 nM
B2 | 228 nM
B3 | 103 nM
B4 | 86.2 nM
B5 | 72.3 nM
B6 | 109 nM
B7 | 102 nM
B8 | 242 nM
B9 | 241 nM
B10 | 335 nM
